The source of these data is patent US20130004416A1 (published 2013).

The target in experiment [1] is T1, human IL-18 (human, UniProt Q14116 37-193).
T1 construct: also called hIL-18
Description: SPR (Biacore). In general terms: In SPR one partner is held on a chip, and binding of the other changes the refractive index at the surface.

Experiment [2] concerns the target T2, human IL-12 (human, UniProt P29459 23-219; P29460 23-328).
T2 construct: ABT874 is said to be against human IL-12p40; also called hIL-12
T2 sequence (looked up) 1: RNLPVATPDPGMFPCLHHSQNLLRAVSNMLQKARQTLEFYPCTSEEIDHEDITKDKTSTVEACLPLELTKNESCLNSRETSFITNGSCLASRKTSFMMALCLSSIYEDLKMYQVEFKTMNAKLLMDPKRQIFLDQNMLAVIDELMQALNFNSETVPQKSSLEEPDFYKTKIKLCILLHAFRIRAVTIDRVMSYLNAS
T2 sequence (looked up) 2: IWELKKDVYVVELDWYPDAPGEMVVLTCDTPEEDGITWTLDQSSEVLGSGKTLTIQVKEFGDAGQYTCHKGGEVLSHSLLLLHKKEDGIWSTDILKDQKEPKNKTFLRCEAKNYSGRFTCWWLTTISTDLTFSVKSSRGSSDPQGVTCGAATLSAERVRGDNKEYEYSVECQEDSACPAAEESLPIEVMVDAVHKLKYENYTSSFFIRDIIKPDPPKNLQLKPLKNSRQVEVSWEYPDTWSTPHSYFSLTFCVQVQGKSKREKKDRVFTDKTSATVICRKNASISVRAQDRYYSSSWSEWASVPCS
Description: SPR (Biacore).

Experiment [3] addresses T1, human IL-18. Description: cell-based or functional assay.
The target of experiment [4] is T2, human IL-12. Description: cell-based or functional assay.

The term Kd denotes the constant that tells how readily two partners part at equilibrium. A high value points to lower affinity.

B1: DVD1812SL (DVD1812HC-SL / DVD1812LC-SL) (bispecific antibody)
chain 1: not shown
chain 2: EIVMTQSPATLSVSPGERATLSCRASESISSNLAWYQQKPGQAPRLFIYTASTRATDIPARFSGSGSGTEFTLTISSLQSEDFAVYYCQQYNNWPSITFGQGTRLEIKRTVAAPQSVLTQPPSVSGAPGQRVTISCSGSRSNIGSNTVKWYQQLPGTAPKLLIYYNDQRPSGVPDRFSGSKSGTSASLAITGLQAEDEADYYCQSYDRYTHPALLFGTGTKVTVLGTVAAPSVFIFPPSDEQLKSGTASVVCLLNNFYPREAKVQWKVDNALQSGNSQESVTEQDSKDSTYSLSSTLTLSKADYEKHKVYACEVTHQGLSSPVTKSFNRGEC
With B1, the Kd came to 0.191 nM with human IL-18 [1] and 1.82 nM in the experiment with human IL-12 [2]. The “Potency (IC50, M), KG-1 bioassay” value with human IL-18 [3] came out at 4e-11 M. Moreover, the “Potency (IC50, M), IL-12-induced IFN-γ production by PHA blast cells” value with human IL-12 [4] was 3.66e-10 M.

B2: DVD1812LL (DVD1812HC-LL / DVD1812LC-LL) (bispecific antibody)
heavy: not shown
light: EIVMTQSPATLSVSPGERATLSCRASESISSNLAWYQQKPGQAPRLFIYTASTRATDIPARFSGSGSGTEFTLTISSLQSEDFAVYYCQQYNNWPSITFGQGTRLEIKRTVAAPSVFIFPPQSVLTQPPSVSGAPGQRVTISCSGSRSNIGSNTVKWYQQLPGTAPKLLIYYNDQRPSGVPDRFSGSKSGTSASLAITGLQAEDEADYYCQSYDRYTHPALLFGTGTKVTVLG
Regarding B2, the values for the equilibrium dissociation constant (Kd) with human IL-18 [1] and in the experiment with human IL-12 [2] were 0.162 nM and 0.113 nM, respectively. Further, the “Potency (IC50, M), KG-1 bioassay” value in the experiment with human IL-18 [3] was determined as 7.8e-11 M. The “Potency (IC50, M), IL-12-induced IFN-γ production by PHA blast cells” value with human IL-12 [4] was 1.18e-10 M.
